According to IntAct's records for PubMed 31515488:

B1: Tripartite motif-containing protein 10 (Homo sapiens), Q9UDY6 (parent)
chain: MASAASVTSLADEVNCPICQGTLREPVTIDCGHNFCRACLTRYCEIPGPDLEESPTCPLCKEPFRPGSFRPNWQLANVVENIERLQLVSTLGLGEEDVCQEHGEKIYFFCEDDEMQLCVVCREAGEHATHTMRFLEDAAAPYREQIHKCLKCLRKEREEIQEIQSRENKRMQVLLTQVSTKRQQVISEFAHLRKFLEEQQSILLAQLESQDGDILRQRDEFDLLVAGEICRFSALIEELEEKNERPARELLTDIRSTLIRCETRKCRKPVAVSPELGQRIRDFPQQALPLQREMKMFLEKLCFELDYEPAHISLDPQTSHPKLLLSEDHQRAQFSYKWQNSPDNPQRFDRATCVLAHTGITGGRHTWVVSIDLAHGGSCTVGVVSEDVQRKGELRLRPEEGVWAVRLAWGFVSALGSFPTRLTLKEQPRQVRVSLDYEVGWVTFTNAVTREPIYTFTASFTRKVIPFFGLWGRGSSFSLSS
partner: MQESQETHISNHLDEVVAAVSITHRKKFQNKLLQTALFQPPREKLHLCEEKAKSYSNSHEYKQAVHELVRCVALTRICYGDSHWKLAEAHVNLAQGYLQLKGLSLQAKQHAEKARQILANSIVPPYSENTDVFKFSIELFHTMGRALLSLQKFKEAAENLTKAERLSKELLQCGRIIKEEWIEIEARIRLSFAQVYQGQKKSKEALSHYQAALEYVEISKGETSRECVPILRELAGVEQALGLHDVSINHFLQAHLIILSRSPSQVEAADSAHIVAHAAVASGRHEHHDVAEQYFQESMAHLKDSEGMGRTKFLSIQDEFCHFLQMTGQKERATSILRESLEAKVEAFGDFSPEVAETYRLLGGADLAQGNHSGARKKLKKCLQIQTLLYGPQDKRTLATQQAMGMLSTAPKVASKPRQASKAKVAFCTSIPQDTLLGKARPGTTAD
B2: Amphiphysin (Homo sapiens), P49418 (parent)
chain: MADIKTGIFAKNVQKRLNRAQEKVLQKLGKADETKDEQFEEYVQNFKRQEAEGTRLQRELRGYLAAIKGMQEASMKLTESLHEVYEPDWYGREDVKMVGEKCDVLWEDFHQKLVDGSLLTLDTYLGQFPDIKNRIAKRSRKLVDYDSARHHLEALQSSKRKDESRISKAEEEFQKAQKVFEEFNVDLQEELPSLWSRRVGFYVNTFKNVSSLEAKFHKEIAVLCHKLYEVMTKLGDQHADKAFTIQGAPSDSGPLRIAKTPSPPEEPSPLPSPTASPNHTLAPASPAPARPRSPSQTRKGPPVPPLPKVTPTKELQQENIISFFEDNFVPEISVTTPSQNEVPEVKKEETLLDLDFDPFKPEVTPAGSAGVTHSPMSQTLPWDLWTTSTDLVQPASGGSFNGFTQPQDTSLFTMQTDQSMICNLAESEQAPPTEPKAEEPLAAVTPAVGLDLGMDTRAEEPVEEAVIIPGADADAAVGTLVSAAEGAPGEEAEAEKATVPAGEGVSLEEAKIGTETTEGAESAQPEAEELEATVPQEKVIPSVVIEPASNHEEEGENEITIGAEPKETTEDAAPPGPTSETPELATEQKPIQDPQPTPSAPAMGAADQLASAREASQELPPGFLYKVETLHDFEAANSDELTLQRGDVVLVVPSDSEADQDAGWLVGVKESDWLQYRDLATYKGLFPENFTRRLD
partner: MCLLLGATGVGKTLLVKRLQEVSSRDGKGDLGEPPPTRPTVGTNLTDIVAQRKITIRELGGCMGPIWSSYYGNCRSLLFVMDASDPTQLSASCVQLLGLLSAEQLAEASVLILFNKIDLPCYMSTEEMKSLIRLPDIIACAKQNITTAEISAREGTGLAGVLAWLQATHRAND
B3: IQ motif and ubiquitin-like domain-containing protein (Homo sapiens), Q8NA54 (parent)
chain: MSNQQEKYEAQNIVNSTEESDDAFDTVTIPVPSEEPQESDQTEEHESGIEQFSESHAIHVEEQSDQSFSSLEPDNEQLMEEVISPRQVSYTPQHHEKQYAMQRPNDDSLAFLDKIKSVKESLQESVEDSLATVKVVLIPVGQEIVIPFKVDTILKYLKDHFSHLLGIPHSVLQIRYSGKILKNNETLVQHGVKPQEIVQVEIFSTNPDLYPVRRIDGLTDVSQIITVTVQTGLDQYQQVPVEIVKSDFHKPFLGGFRHKVTGVEYHNAGTQTVPKRIPERLSIFCRDTQTVFQKKNLQQTTNTTSTQMTNIGVYVSNMTDKLVTPGKYFSAAEYHAQRLKAVIVIQTYYRQWHAKIFVENLRRQKSLRLEWETQQELRKIREKEEWIKLDYHRRHNPKTNEDFEFLYNALEFWRQEELTRINQSFTGAERKAALCELLEKETQIIASIGRHRYIAYMANQEAAIQAFLDKCSAPKIWRTPNGKTIEMDTQFTIRARELQNIYKCIMLKNISQDERLDVLLTLKHTVKEHECKLTQEILELIDREVDLMMRGVKHHNLEGLRKRIATLFFHYIKTPLFNPEVAKYLKVPQDPLKFYKKIYFCHSCQLYLPSTEFSVSSTSRRIYRCRNCINLQNEAQKRESFLKYKCLLQQLYYTEADYEDDSKIAFLMQLQDIQYLTENIWASQSVLSACDNLSDLVMVRWNKSLEWSPWNCILLTKDEAAAHLKLTSIEEGYERSFIHKIKHKHILAKNYFSQVPVLASFILDDGEIDEIRWKYHSDTTPKIIESQRPPH
partner: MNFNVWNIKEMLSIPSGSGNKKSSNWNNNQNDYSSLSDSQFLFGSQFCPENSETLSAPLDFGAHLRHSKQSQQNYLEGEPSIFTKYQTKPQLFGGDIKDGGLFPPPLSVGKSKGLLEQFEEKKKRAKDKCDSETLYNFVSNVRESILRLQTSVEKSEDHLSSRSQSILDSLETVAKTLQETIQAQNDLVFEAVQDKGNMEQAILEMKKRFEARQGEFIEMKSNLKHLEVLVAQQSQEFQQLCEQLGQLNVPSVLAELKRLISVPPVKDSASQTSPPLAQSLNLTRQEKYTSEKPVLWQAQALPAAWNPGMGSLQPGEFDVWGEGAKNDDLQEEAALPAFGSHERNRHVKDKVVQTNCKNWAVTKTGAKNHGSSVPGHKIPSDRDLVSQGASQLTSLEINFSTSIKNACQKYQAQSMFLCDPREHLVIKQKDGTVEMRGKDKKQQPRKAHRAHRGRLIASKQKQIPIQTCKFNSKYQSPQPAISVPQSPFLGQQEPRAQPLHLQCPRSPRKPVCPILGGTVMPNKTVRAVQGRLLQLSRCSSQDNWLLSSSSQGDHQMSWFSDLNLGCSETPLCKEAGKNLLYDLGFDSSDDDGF
B4: Tetraspanin-5 (Homo sapiens), P62079 (parent)
chain: MSGKHYKGPEVSCCIKYFIFGFNVIFWFLGITFLGIGLWAWNEKGVLSNISSITDLGGFDPVWLFLVVGGVMFILGFAGCIGALRENTFLLKFFSVFLGIIFFLELTAGVLAFVFKDWIKDQLYFFINNNIRAYRDDIDLQNLIDFTQEYWQCCGAFGADDWNLNIYFNCTDSNASRERCGVPFSCCTKDPAEDVINTQCGYDARQKPEVDQQIVIYTKGCVPQFEKWLQDNLTIVAGIFIGIALLQIFGICLAQNLVSDIEAVRASW
partner: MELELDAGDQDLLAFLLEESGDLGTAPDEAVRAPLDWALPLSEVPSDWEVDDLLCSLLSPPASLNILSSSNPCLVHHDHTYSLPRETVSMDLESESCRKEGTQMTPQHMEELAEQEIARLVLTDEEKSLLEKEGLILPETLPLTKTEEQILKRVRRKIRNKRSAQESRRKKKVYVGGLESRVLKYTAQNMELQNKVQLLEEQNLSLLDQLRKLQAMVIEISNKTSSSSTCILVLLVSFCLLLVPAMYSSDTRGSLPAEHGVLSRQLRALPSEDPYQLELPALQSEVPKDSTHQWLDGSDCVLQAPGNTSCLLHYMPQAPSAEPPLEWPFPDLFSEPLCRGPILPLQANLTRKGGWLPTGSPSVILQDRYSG
B5: Protein LDOC1 (Homo sapiens), O95751 (parent)
chain: MVDELVLLLHALLMRHRALSIENSQLMEQLRLLVCERASLLRQVRPPSCPVPFPETFNGESSRLPEFIVQTASYMLVNENRFCNDAMKVAFLISLLTGEAEEWVVPYIEMDSPILGDYRAFLDEMKQCFGWDDDEDDDDEEEEDDY
partner: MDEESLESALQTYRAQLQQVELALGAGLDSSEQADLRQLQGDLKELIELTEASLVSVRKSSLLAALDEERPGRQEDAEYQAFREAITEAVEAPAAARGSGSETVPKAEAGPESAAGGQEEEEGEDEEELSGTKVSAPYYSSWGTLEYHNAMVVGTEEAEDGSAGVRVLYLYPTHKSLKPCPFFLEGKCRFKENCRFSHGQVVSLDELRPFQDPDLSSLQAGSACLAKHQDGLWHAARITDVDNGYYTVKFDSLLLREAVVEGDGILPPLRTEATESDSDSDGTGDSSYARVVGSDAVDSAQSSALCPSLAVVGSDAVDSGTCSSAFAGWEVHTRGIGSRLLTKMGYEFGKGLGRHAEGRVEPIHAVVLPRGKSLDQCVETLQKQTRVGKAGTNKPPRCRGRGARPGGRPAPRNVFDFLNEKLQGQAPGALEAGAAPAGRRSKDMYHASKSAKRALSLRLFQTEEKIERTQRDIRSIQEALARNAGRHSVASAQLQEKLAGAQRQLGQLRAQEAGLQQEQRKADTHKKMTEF
B6: Oxidative stress-induced growth inhibitor 1 (Homo sapiens), Q9UJX0 (parent)
chain: MSSSRKDHLGASSSEPLPVIIVGNGPSGICLSYLLSGYTPYTKPDAIHPHPLLQRKLTEAPGVSILDQDLDYLSEGLEGRSQSPVALLFDALLRPDTDFGGNMKSVLTWKHRKEHAIPHVVLGRNLPGGAWHSIEGSMVILSQGQWMGLPDLEVKDWMQKKRRGLRNSRATAGDIAHYYRDYVVKKGLGHNFVSGAVVTAVEWGTPDPSSCGAQDSSPLFQVSGFLTRNQAQQPFSLWARNVVLATGTFDSPARLGIPGEALPFIHHELSALEAATRVGAVTPASDPVLIIGAGLSAADAVLYARHYNIPVIHAFRRAVDDPGLVFNQLPKMLYPEYHKVHQMMREQSILSPSPYEGYRSLPRHQLLCFKEDCQAVFQDLEGVEKVFGVSLVLVLIGSHPDLSFLPGAGADFAVDPDQPLSAKRNPIDVDPFTYQSTRQEGLYAMGPLAGDNFVRFVQGGALAVASSLLRKETRKPP
partner: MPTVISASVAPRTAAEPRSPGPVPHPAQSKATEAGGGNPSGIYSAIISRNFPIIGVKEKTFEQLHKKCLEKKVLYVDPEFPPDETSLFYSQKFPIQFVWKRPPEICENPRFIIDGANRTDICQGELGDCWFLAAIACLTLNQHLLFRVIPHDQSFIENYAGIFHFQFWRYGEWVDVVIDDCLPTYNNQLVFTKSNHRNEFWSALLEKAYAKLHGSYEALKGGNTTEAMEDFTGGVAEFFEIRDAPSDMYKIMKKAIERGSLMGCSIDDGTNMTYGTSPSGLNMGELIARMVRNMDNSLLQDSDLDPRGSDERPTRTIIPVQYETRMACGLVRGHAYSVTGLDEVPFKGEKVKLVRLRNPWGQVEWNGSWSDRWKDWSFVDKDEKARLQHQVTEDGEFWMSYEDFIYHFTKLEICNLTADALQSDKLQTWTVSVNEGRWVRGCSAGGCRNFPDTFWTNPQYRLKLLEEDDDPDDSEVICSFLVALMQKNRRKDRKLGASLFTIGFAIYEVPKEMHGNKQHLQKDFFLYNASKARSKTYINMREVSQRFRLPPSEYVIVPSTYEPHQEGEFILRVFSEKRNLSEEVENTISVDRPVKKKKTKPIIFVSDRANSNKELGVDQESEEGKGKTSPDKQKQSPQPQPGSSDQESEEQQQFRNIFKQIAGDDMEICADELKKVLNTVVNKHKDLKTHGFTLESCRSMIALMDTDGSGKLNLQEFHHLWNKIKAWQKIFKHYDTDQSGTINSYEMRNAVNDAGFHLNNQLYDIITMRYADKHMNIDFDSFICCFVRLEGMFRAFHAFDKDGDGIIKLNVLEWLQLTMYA
B7: Syntenin-1 (Homo sapiens), O00560 (parent)
chain: MSLYPSLEDLKVDKVIQAQTAFSANPANPAILSEASAPIPHDGNLYPRLYPELSQYMGLSLNEEEIRANVAVVSGAPLQGQLVARPSSINYMVAPVTGNDVGIRRAEIKQGIREVILCKDQDGKIGLRLKSIDNGIFVQLVQANSPASLVGLRFGDQVLQINGENCAGWSSDKAHKVLKQAFGEKITMTIRDRPFERTITMHKDSTGHVGFIFKNGKITSIVKDSSAARNGLLTEHNICEINGQNVIGLKDSQIADILSTSGTVVTITIMPAFIFEHIIKRMAPSIMKSLMDHTIPEV
partner: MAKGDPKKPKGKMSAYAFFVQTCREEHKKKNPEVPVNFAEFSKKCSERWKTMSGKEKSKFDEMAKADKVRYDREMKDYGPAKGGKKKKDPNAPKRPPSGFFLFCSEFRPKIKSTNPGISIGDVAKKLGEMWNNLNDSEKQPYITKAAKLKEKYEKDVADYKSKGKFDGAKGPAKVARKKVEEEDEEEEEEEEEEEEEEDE

Variants of: B1
Conditions: with ttc23_human TTC23, Q5W5X9

Variant | effect of a mutation on the interaction
I236T | disrupting interaction strength
Q161E | with no effect
Q210L | with no effect

Variants of: B2
Conditions: with arl16_human ARL16, Q0P5N6

Variant | effect of a mutation on the interaction
M376I | with no effect

Variants of: B3
Conditions: with iho1_human IHO1, Q8IYA8

Variant | effect of a mutation on the interaction
V126M | with no effect
I501F | disrupting interaction strength

Variants of: B4
Conditions: with creb3_human CREB3, O43889

Variant | effect of a mutation on the interaction
T218M | with no effect

Variants of: B5
Conditions: with zgpat_human ZGPAT

Variant | effect of a mutation on the interaction
L12H | disrupting interaction strength

Variants of: B6
Conditions: with can3_human CAPN3, P20807

Variant | effect of a mutation on the interaction
D320N | with no effect
S236L | with no effect

Variants of: B7
Conditions: with hmgb3_human HMGB3, O15347

Variant | effect of a mutation on the interaction
K124R | with no effect
